Data from patent US10081665B2, “Peptides and combination of peptides for use in immunotherapy against various tumors” (immatics biotechnologies GmbH, priority 2015, dated 2018).

target: HLA-A*02:01 (Homo sapiens, UniProt P04439, D140Y/D185E/D98H/E176V/E277Q/G131W/G231S/I119V/I121R/I166T/I218V/L300P/L318F/N151K/N90K/P208A/P217A/Q86G/Q94H/R138H/R169H/T345S); experiment: MHC binding assay (UV-ligand exchange, beta2m ELISA); conditions: binding to HLA-A*02:01, β2m ELISA
Outline: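 Peptide-MHC complexes made by UV-ligand exchange of a UV-cleavable peptide for test peptide; exchange yield measured by β2m ELISA on streptavidin-coated plates with samples diluted 100-fold, HRP anti-β2m and TMB read at 450 nm. Refolded HLA-A*02:01/MLA-001 monomers (15-500 ng/ml) served as standards.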

Row | Peptide exchange (MHC class I binding score, peptide exchange yield) | Substance
1 | +++ (≥50 = +++) | 224 (LLFDWSGTGRADA; listed as Homo sapiens) [compound 224]
2 | +++ (≥50 = +++) | 225 (FLPQPVPLSV; listed as Homo sapiens) [compound 225]
3 | +++ (≥50 = +++) | 226 (SLAGNLQEL; listed as Homo sapiens) [compound 226]
4 | + (≥10% = +) | 227 (SEMEELPSV; listed as Homo sapiens) [compound 227]
5 | +++ (≥50 = +++) | 228 (SLLELDGINLRL; listed as Homo sapiens) [compound 228]
6 | ++ (≥20% = ++) | 229 (YLYELEHAL; listed as Homo sapiens) [compound 229]
7 | +++ (≥50 = +++) | 230 (KLLNMIFSI; listed as Homo sapiens) [compound 230]
8 | +++ (≥50 = +++) | 231 (LLDDIFIRL; listed as Homo sapiens) [compound 231]
9 | ++++ (≥75% = ++++) | 234 (VLLNEILEQV; listed as Homo sapiens) [compound 234]
10 | ++ (≥20% = ++) | 235 (SLLNQPKAV; listed as Homo sapiens) [compound 235]
11 | +++ (≥50 = +++) | 237 (ALLEQTGDMSL; listed as Homo sapiens) [compound 237]
12 | ++ (≥20% = ++) | 238 (HLQEKLQSL; listed as Homo sapiens) [compound 238]
13 | +++ (≥50 = +++) | 239 (VIIKGLEEITV; listed as Homo sapiens) [compound 239]
14 | +++ (≥50 = +++) | 241 (KQFEGTVEI; listed as Homo sapiens) [compound 241]
15 | ++ (≥20% = ++) | 243 (GLAEFQENV; listed as Homo sapiens) [compound 243]
16 | +++ (≥50 = +++) | 244 (NVAEIVIHI; listed as Homo sapiens) [compound 244]
17 | ++ (≥20% = ++) | 245 (ALLEEEEGV; listed as Homo sapiens) [compound 245]
18 | ++ (≥20% = ++) | 247 (NLLIDDKGTIKL; listed as Homo sapiens) [compound 247]
19 | +++ (≥50 = +++) | 248 (VLMQDSRLYL; listed as Homo sapiens) [compound 248]
20 | +++ (≥50 = +++) | 249 (YLYQILQGI; listed as Homo sapiens) [compound 249]
21 | +++ (≥50 = +++) | 250 (LMQDSRLYL; listed as Homo sapiens) [compound 250]
22 | +++ (≥50 = +++) | 251 (LLWGNLPEI; listed as Homo sapiens) [compound 251]
23 | ++ (≥20% = ++) | 252 (SLMEKNQSL; listed as Homo sapiens) [compound 252]
24 | +++ (≥50 = +++) | 253 (KLLAVIHEL; listed as Homo sapiens) [compound 253]
25 | +++ (≥50 = +++) | 256 (FLNDIFERI; listed as Homo sapiens) [compound 256]

Row | Peptide exchange (MHC class I binding score, peptide exchange yield) | Substance
26 | ++ (≥20% = ++) | 258 (QLVQRVASV; listed as Homo sapiens) [compound 258]
27 | + (≥10% = +) | 259 (GPGIFPPPPPQP; listed as Homo sapiens) [compound 259]
28 | +++ (≥50 = +++) | 261 (GLAALAVHL; listed as Homo sapiens) [compound 261]
29 | +++ (≥50 = +++) | 262 (LLLEAVWHL; listed as Homo sapiens) [compound 262]
30 | +++ (≥50 = +++) | 265 (FLLDKPQDLSI; listed as Homo sapiens) [compound 265]
31 | ++ (≥20% = ++) | 266 (FLLDKPQDL; listed as Homo sapiens) [compound 266]
32 | ++ (≥20% = ++) | 268 (SLDKDIVAL; listed as Homo sapiens) [compound 268]
33 | ++++ (≥75% = ++++) | 269 (GLLDCPIFL; listed as Homo sapiens) [compound 269]
34 | +++ (≥50 = +++) | 270 (TLLTFFHEL; listed as Homo sapiens) [compound 270]
35 | +++ (≥50 = +++) | 271 (VLIEYNFSI; listed as Homo sapiens) [compound 271]
36 | ++ (≥20% = ++) | 272 (FVMEGEPPKL; listed as Homo sapiens) [compound 272]
37 | ++ (≥20% = ++) | 273 (SLNKQIETV; listed as Homo sapiens) [compound 273]
38 | +++ (≥50 = +++) | 274 (TLYNPERTITV; listed as Homo sapiens) [compound 274]
39 | ++ (≥20% = ++) | 275 (AVPPPPSSV; listed as Homo sapiens) [compound 275]
40 | +++ (≥50 = +++) | 276 (RMPTVLQCV; listed as Homo sapiens) [compound 276]
41 | +++ (≥50 = +++) | 277 (KLQEELNKV; listed as Homo sapiens) [compound 277]
42 | +++ (≥50 = +++) | 278 (VLEDKVLSV; listed as Homo sapiens) [compound 278]
43 | ++ (≥20% = ++) | 279 (VLMDEGAVLTL; listed as Homo sapiens) [compound 279]
44 | +++ (≥50 = +++) | 280 (HLWGHALFL; listed as Homo sapiens) [compound 280]
45 | ++ (≥20% = ++) | 281 (LLLESDPKVYSL; listed as Homo sapiens) [compound 281]
46 | ++ (≥20% = ++) | 282 (SLYALHVKA; listed as Homo sapiens) [compound 282]
47 | +++ (≥50 = +++) | 283 (ALSELLQQV; listed as Homo sapiens) [compound 283]
48 | ++ (≥20% = ++) | 284 (KLMDPGSLPPL; listed as Homo sapiens) [compound 284]
49 | +++ (≥50 = +++) | 285 (MLLDTVQKV; listed as Homo sapiens) [compound 285]
50 | +++ (≥50 = +++) | 286 (FLTEMVHFI; listed as Homo sapiens) [compound 286]
